In article doi:10.1101/2020.05.06.080465:

Biological target: 19S proteasomal subunit (human (endogenous in HeLa))
Test: SEC

- percent of the ADRM1 signal associated with 19S: 15%
Substance: ubiquitin receptor ADRM1 (from UniProt Q16186 1-407) (natural protein)
